The record followed here is publication PMC3821859, “Role of the Acidic Tail of High Mobility Group Protein B1 (HMGB1) in Protein Stability and DNA Bending”.

As usually defined, the Kd is the equilibrium constant for the complex coming apart.

The target in data set [1] is HMGB1ΔC (Homo sapiens, UniProt P09429 1-185, del186-215). Description: fluorescence anisotropy; 50 nM DNA; sigmoidal dose-response fit; 10 mM Tris-HCl pH 7.5, 50 mM NaCl, 0.5 mM DTT, 0.1 mM EDTA, 5% glycerol; 25 °C (anisotropy). The following applies: protein: recombinant; tags: N-terminal 6xHis with TEV site, not removed; label: 5'-6-FAM on complementary strand; blunt. (In general: Polarisation of emitted light reports the rotation of a fluorescent probe.)

In data set [2] the target is HMGB1 (Homo sapiens, UniProt P09429 1-215). Described as above. The following applies: protein: recombinant; tags: N-terminal 6xHis with TEV site, not removed; label: 5'-6-FAM on complementary strand; blunt.
HMGB1, sequence (P09429 whole entry): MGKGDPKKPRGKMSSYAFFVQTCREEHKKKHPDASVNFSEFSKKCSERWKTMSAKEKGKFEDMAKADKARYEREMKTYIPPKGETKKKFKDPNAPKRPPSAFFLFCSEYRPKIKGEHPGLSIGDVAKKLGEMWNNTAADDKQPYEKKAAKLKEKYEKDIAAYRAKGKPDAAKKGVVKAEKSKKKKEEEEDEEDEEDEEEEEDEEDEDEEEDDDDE

HMGB1ΔC, sequence (P09429 1-185, stated change not applied): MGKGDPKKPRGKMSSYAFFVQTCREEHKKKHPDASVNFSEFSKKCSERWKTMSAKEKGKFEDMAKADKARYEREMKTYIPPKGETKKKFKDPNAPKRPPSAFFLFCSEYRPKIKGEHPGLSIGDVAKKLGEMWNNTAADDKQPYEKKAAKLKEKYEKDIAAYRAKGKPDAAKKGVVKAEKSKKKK

B1: 20-bp dsDNA, 6-FAM (dsDNA)
DNA 1: TACTGTATGAGCATACAGTA
DNA 2: TACTGTATGCTCATACAGTA
For the molecule B1, the values for the Kd in data set [1] and in data set [2] were 72 ± 4 nM and 88 ± 5 nM, respectively.
